According to paper PMC6609874, “MeABL5, an ABA Insensitive 5-Like Basic Leucine Zipper Transcription Factor, Positively Regulates MeCWINV3 in Cassava (Manihot esculenta Crantz)”:

Target: T1, MeABL5 (Manihot esculenta Crantz, UniProt A0A411G151)
T1 sequence: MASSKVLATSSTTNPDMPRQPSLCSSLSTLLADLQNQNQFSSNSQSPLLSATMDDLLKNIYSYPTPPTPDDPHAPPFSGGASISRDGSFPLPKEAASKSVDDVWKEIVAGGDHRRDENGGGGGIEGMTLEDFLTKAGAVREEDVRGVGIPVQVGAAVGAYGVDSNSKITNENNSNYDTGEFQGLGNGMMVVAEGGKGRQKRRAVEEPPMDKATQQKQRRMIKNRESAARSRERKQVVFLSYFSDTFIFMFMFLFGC
Test: EMSA; 250 ng protein, 500 ng DNA; EMSA kit (Invitrogen), room temperature 30 min, 500 ng DNA, 0-250 ng protein, PAGE with SYBR Green/SYPRO Ruby stain; buffer, salt and pH not stated
Conditions: protein: recombinant; tags: MBP (pET28a-MBP) removed by TEV protease; Ni column purified; chain copies: 2; label: none (SYBR Green stain); annealed duplex

B1: pMeCWINV3-WT 60 bp (dsDNA)
DNA 1: ATCGTTGACATGTGAGTATTTGACGTATCCACGTGGGAAAGGGAAGAAAAACAACATTGA
DNA 2: TCAATGTTGTTTTTCTTCCCTTTCCCACGTGGATACGTCAAATACTCACATGTCAACGAT
- binding result: binds

B2: pMeCWINV3-MT 54 bp (CACGTG deleted) (dsDNA)
DNA 1: ATCGTTGACATGTGAGTATTTGACGTATCGGAAAGGGAAGAAAAACAACATTGA
DNA 2: TCAATGTTGTTTTTCTTCCCTTTCCGATACGTCAAATACTCACATGTCAACGAT
- binding result: no binding
